The values below come from patent US20110105407A1.

The assay has as its target proMMP-9 (UniProt P14780). The experiment in a line: cell-based or functional assay.

Sequence of proMMP-9 (P14780 20-707 limits assumed): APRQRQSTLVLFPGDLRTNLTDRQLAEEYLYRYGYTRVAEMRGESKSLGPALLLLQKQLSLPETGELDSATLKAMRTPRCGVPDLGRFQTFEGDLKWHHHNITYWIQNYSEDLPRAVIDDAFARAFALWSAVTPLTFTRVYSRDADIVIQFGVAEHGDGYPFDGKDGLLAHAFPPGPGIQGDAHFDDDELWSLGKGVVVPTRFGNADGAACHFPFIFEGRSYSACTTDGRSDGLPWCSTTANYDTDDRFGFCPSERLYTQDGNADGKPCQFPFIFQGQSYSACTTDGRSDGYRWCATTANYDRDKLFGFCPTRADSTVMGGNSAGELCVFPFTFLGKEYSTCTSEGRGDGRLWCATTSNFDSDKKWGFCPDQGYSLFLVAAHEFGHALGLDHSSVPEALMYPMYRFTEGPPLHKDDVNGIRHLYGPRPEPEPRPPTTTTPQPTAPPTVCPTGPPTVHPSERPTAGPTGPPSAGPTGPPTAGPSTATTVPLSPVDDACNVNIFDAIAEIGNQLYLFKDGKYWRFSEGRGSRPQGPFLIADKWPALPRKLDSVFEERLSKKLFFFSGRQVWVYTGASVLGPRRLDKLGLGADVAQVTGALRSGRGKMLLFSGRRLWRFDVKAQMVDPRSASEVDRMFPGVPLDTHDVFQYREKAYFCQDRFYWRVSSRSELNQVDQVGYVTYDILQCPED

In the case of “TIMP-1-GPI (from UniProt P01033 24-207; P19256 202-237)”, the release of proMMP-9 from RCC-53 into the medium (gelatinase zymography); concentration from which a decrease was seen worked out at 10 ng/mL.
